# T1: Bicoid DBD-GST (Bcd) (UniProt P09081 83-170)
# T1 sequence: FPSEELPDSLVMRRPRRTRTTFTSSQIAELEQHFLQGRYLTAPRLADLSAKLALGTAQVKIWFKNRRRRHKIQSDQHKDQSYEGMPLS
# T2: Bcd homeodomain (Drosophila melanogaster, UniProt P09081-2 77-166)
# T2 sequence: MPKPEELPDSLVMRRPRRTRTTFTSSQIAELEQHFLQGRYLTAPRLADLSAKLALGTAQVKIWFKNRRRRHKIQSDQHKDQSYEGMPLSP
# B1: Bcd competitor 8 (G3T) (dsDNA)
# DNA 1: TCGACGTTAATCCCTA
# DNA 2: TAGGGATTAAGGTCGA
# B2: Bcd competitor 9 (G3A) (dsDNA)
# DNA 1: TCGACGATAATCCCTA
# DNA 2: TAGGGATTATGGTCGA
# B3: Bcd competitor 11 (T4G) (dsDNA)
# DNA 1: TCGACGGGAATCCCTA
# DNA 2: TAGGGATTCCGGTCGA
# B4: Bcd competitor 10 (T4C) (dsDNA)
# DNA 1: TCGACGGCAATCCCTA
# DNA 2: TAGGGATTGCGGTCGA
# B5: Bcd consensus CGGTAATCCCT (dsDNA)
# DNA 1: TCGACGGTAATCCCTA
# DNA 2: TAGGGATTACCGTCGA
# B6: Bcd oligo 6 (dsDNA)
# DNA 1: TCGACAGTAATCCCTA
# DNA 2: TAGGGATTACTGTCGA
# B7: Bcd oligo 5 (dsDNA)
# DNA 1: TCGACTGTAATCCCTA
# DNA 2: TAGGGATTACAGTCGA
# B8: Bcd consensus (dsDNA)
# DNA 1: TCGACGGTAATCCCTA
# DNA 2: TAGGGATTACCGTCGA
# B9: Bcd oligo 21 (dsDNA)
# DNA 1: TCGACGGTAAACCCTA
# DNA 2: TAGGGTTTACCGTCGA
# B10: Bcd oligo 19 (dsDNA)
# DNA 1: TCGACGGTAACCCCTA
# DNA 2: TAGGGGTTACCGTCGA
# B11: Bcd oligo 1 (dsDNA)
# DNA 1: TCGAGGGTAATCCCTA
# DNA 2: TAGGGATTACCCTCGA
# B12: Bcd oligo 7 (dsDNA)
# DNA 1: TCGACGCTAATCCCTA
# DNA 2: TAGGGATTAGCGTCGA
# B13: Bcd oligo 14 (dsDNA)
# DNA 1: TCGACGGTGATCCCTA
# DNA 2: TAGGGATCACCGTCGA
# B14: Bcd oligo 20 (dsDNA)
# DNA 1: TCGACGGTAAGCCCTA
# DNA 2: TAGGGCTTACCGTCGA
# B15: Bcd oligo 28 (dsDNA)
# DNA 1: TCGACGGTAATCCGTA
# DNA 2: TACGGATTACCGTCGA
# B16: Bcd oligo 30 (dsDNA)
# DNA 1: TCGACGGTAATCCATA
# DNA 2: TATGGATTACCGTCGA
# B17: Bcd oligo 13 (dsDNA)
# DNA 1: TCGACGGTCATCCCTA
# DNA 2: TAGGGATGACCGTCGA
# B18: Bcd oligo 12 (dsDNA)
# DNA 1: TCGACGGAAATCCCTA
# DNA 2: TAGGGATTTCCGTCGA
# B19: Bcd oligo 4 (dsDNA)
# DNA 1: TCGACCGTAATCCCTA
# DNA 2: TAGGGATTACGGTCGA
# B20: Bcd oligo 25 (dsDNA)
# DNA 1: TCGACGGTAATCGCTA
# DNA 2: TAGCGATTACCGTCGA
# B21: Bcd oligo 18 (dsDNA)
# DNA 1: TCGACGGTATTCCCTA
# DNA 2: TAGGGAATACCGTCGA
# B22: Bcd oligo 33 (dsDNA)
# DNA 1: TCGACGGTAATCCCAA
# DNA 2: TTGGGATTACCGTCGA
# B23: Bcd oligo 24 (dsDNA)
# DNA 1: TCGACGGTAATACCTA
# DNA 2: TAGGTATTACCGTCGA
# B24: Bcd oligo 23 (dsDNA)
# DNA 1: TCGACGGTAATTCCTA
# DNA 2: TAGGAATTACCGTCGA
# B25: Bcd oligo 32 (dsDNA)
# DNA 1: TCGACGGTAATCCCGA
# DNA 2: TCGGGATTACCGTCGA
# B26: Bcd oligo 15 (dsDNA)
# DNA 1: TCGACGGTTATCCCTA
# DNA 2: TAGGGATAACCGTCGA
# B27: Bcd oligo 9 (dsDNA)
# DNA 1: TCGACGATAATCCCTA
# DNA 2: TAGGGATTATCGTCGA
# B28: Bcd oligo 29 (dsDNA)
# DNA 1: TCGACGGTAATCCTTA
# DNA 2: TAAGGATTACCGTCGA
# B29: Bcd oligo 3 (dsDNA)
# DNA 1: TCGAAGGTAATCCCTA
# DNA 2: TAGGGATTACCTTCGA
# B30: Bcd oligo 10 (dsDNA)
# DNA 1: TCGACGGCAATCCCTA
# DNA 2: TAGGGATTGCCGTCGA
# B31: Bcd oligo 17 (dsDNA)
# DNA 1: TCGACGGTAGTCCCTA
# DNA 2: TAGGGACTACCGTCGA
# B32: Bcd oligo 27 (dsDNA)
# DNA 1: TCGACGGTAATCACTA
# DNA 2: TAGTGATTACCGTCGA
# B33: Bcd oligo 26 (dsDNA)
# DNA 1: TCGACGGTAATCTCTA
# DNA 2: TAGAGATTACCGTCGA
# B34: Bcd oligo 11 (dsDNA)
# DNA 1: TCGACGGGAATCCCTA
# DNA 2: TAGGGATTCCCGTCGA
# B35: Bcd oligo 2 (dsDNA)
# DNA 1: TCGATGGTAATCCCTA
# DNA 2: TAGGGATTACCATCGA
# B36: Bcd oligo 16 (dsDNA)
# DNA 1: TCGACGGTACTCCCTA
# DNA 2: TAGGGAGTACCGTCGA
# B37: Bcd oligo 31 (dsDNA)
# DNA 1: TCGACGGTAATCCCCA
# DNA 2: TGGGGATTACCGTCGA
# B38: Bcd oligo 22 (dsDNA)
# DNA 1: TCGACGGTAATGCCTA
# DNA 2: TAGGCATTACCGTCGA
# B39: Bcd oligo 8 (dsDNA)
# DNA 1: TCGACGTTAATCCCTA
# DNA 2: TAGGGATTAACGTCGA
# B40: Bcd EMSA 16-mer (dsDNA)
# DNA 1: TCGACCGTAATCCCTA
# DNA 2: TAGGGATTACGGTCGA
# B41: Bcd competitor 12 (T4A) (dsDNA)
# DNA 1: TCGACGGAAATCCCTA
# DNA 2: TAGGGATTTCGGTCGA
# Molecular target: T1, Bicoid DBD-GST (Bcd)
# Test: competitive fluorescence anisotropy (HiP-FA); mean of replicates 2.83, 2.8405; HiP-FA: 33 mM phosphate pH 7.0, 90 mM NaCl, 0.01% Tween 20, 0.1 mM DTT, 0.5% agarose; conventional titration and EMSA: 20 mM Tris-acetate pH 7.0, 50 nM (sic) NaCl, 0.01% Tween-20, 0.1 mM DTT
# Conditions: protein: recombinant; tags: N-terminal GST; blunt, G:G mismatch at position 6
row,Molecule,Kd [nM]
1,B1,2.83

# Molecular target: T1, Bicoid DBD-GST (Bcd)
# Test: competitive fluorescence anisotropy (HiP-FA); mean of replicates 3.766, 3.8365; HiP-FA: 33 mM phosphate pH 7.0, 90 mM NaCl, 0.01% Tween 20, 0.1 mM DTT, 0.5% agarose; conventional titration and EMSA: 20 mM Tris-acetate pH 7.0, 50 nM (sic) NaCl, 0.01% Tween-20, 0.1 mM DTT
# Conditions: protein: recombinant; tags: N-terminal GST; blunt, G:G mismatch at position 6
row,Molecule,Kd [nM]
1,B2,3.8

# Molecular target: T1, Bicoid DBD-GST (Bcd)
# Test: competitive fluorescence anisotropy (HiP-FA); mean of replicates 20.981, 21.8595; HiP-FA: 33 mM phosphate pH 7.0, 90 mM NaCl, 0.01% Tween 20, 0.1 mM DTT, 0.5% agarose; conventional titration and EMSA: 20 mM Tris-acetate pH 7.0, 50 nM (sic) NaCl, 0.01% Tween-20, 0.1 mM DTT
# Conditions: protein: recombinant; tags: N-terminal GST; blunt, G:G mismatch at position 6
row,Molecule,Kd [nM]
1,B3,21.4

# Molecular target: T1, Bicoid DBD-GST (Bcd)
# Test: competitive fluorescence anisotropy (HiP-FA); mean of replicates 18.854, 22.285; HiP-FA: 33 mM phosphate pH 7.0, 90 mM NaCl, 0.01% Tween 20, 0.1 mM DTT, 0.5% agarose; conventional titration and EMSA: 20 mM Tris-acetate pH 7.0, 50 nM (sic) NaCl, 0.01% Tween-20, 0.1 mM DTT
# Conditions: protein: recombinant; tags: N-terminal GST; blunt, G:G mismatch at position 6
row,Molecule,Kd [nM]
1,B4,20.6

# Molecular target: T1, Bicoid DBD-GST (Bcd)
# Test: competitive fluorescence anisotropy (HiP-FA); HiP-FA: 33 mM phosphate pH 7.0, 90 mM NaCl, 0.01% Tween 20, 0.1 mM DTT, 0.5% agarose; conventional titration and EMSA: 20 mM Tris-acetate pH 7.0, 50 nM (sic) NaCl, 0.01% Tween-20, 0.1 mM DTT
# Conditions: protein: recombinant; tags: N-terminal GST; blunt
row,Molecule,Kd [nM]
1,B5,2.2

# Molecular target: T2, Bcd homeodomain
# Test: FP; 33 mM phosphate pH 7.0, 90 mM NaCl, 0.01% Tween 20, 0.1 mM DTT, 0.5% agarose; room temperature
# Conditions: tags: N-GST (pGEX-6P-1, kept)
row,Molecule,Kd [nM]
1,B6,5.86
2,B7,6.66
3,B8,2.2

# Same assay, conditions: tags: N-GST (pGEX-6P-1, kept); printed reverse strand differs at base 6 of strand 1 (G / C); complement of the forward strand used
row,Molecule,Kd [nM]
1,B9,48.8
2,B10,94.1
3,B11,2.7
4,B12,2.79
5,B13,8.98
6,B14,18.8
7,B15,3.67
8,B16,5.18
9,B17,64.3
10,B18,12.9
11,B19,5.02
12,B20,14.1
13,B21,128
14,B22,4.71
15,B23,47.8
16,B24,27.2

row,Molecule,Kd [nM]
1,B25,5.08
2,B26,29.4
3,B27,3.8
4,B28,4.03
5,B29,3.76
6,B30,20.6
7,B31,45.8
8,B32,12.7
9,B33,7.79
10,B34,21.4
11,B35,2.66
12,B36,146
13,B37,3.8
14,B38,92.1
15,B39,2.83

# Molecular target: T1, Bicoid DBD-GST (Bcd)
# Test: EMSA; direct titration; HiP-FA: 33 mM phosphate pH 7.0, 90 mM NaCl, 0.01% Tween 20, 0.1 mM DTT, 0.5% agarose; conventional titration and EMSA: 20 mM Tris-acetate pH 7.0, 50 nM (sic) NaCl, 0.01% Tween-20, 0.1 mM DTT
# Conditions: protein: recombinant; tags: N-terminal GST; label: Cy3; blunt
row,Molecule,Kd [nM]
1,B40,1.8 ± 0.2

# Tested on: Caudal DBD-GST (Cad)
# Test: competitive fluorescence anisotropy (conventional titration)
# Conditions: HiP-FA: 33 mM phosphate pH 7.0, 90 mM NaCl, 0.01% Tween 20, 0.1 mM DTT, 0.5% agarose; conventional titration and EMSA: 20 mM Tris-acetate pH 7.0, 50 nM …
row,Molecule,Kd [nM]
1,Cad consensus oligo,0.05

# Molecular target: T1, Bicoid DBD-GST (Bcd)
# Test: competitive fluorescence anisotropy (HiP-FA); mean of replicates 13.103, 12.6865; HiP-FA: 33 mM phosphate pH 7.0, 90 mM NaCl, 0.01% Tween 20, 0.1 mM DTT, 0.5% agarose; conventional titration and EMSA: 20 mM Tris-acetate pH 7.0, 50 nM (sic) NaCl, 0.01% Tween-20, 0.1 mM DTT
# Conditions: protein: recombinant; tags: N-terminal GST; blunt, G:G mismatch at position 6
row,Molecule,Kd [nM]
1,B41,12.9

# Tested on: Giant DBD-GST (Gt)
# Test: competitive fluorescence anisotropy (HiP-FA)
# Conditions: HiP-FA: 33 mM phosphate pH 7.0, 90 mM NaCl, 0.01% Tween 20, 0.1 mM DTT, 0.5% agarose; conventional titration and EMSA: 20 mM Tris-acetate pH 7.0, 50 nM …
row,Molecule,Kd [nM]
1,Gt consensus oligo,0.9

# Tested on: Ttk-F DBD-GST
# Test: competitive fluorescence anisotropy (HiP-FA)
# Conditions: HiP-FA: 33 mM phosphate pH 7.0, 90 mM NaCl, 0.01% Tween 20, 0.1 mM DTT, 0.5% agarose; conventional titration and EMSA: 20 mM Tris-acetate pH 7.0, 50 nM …
row,Molecule,Kd [nM]
1,Ttk-F consensus oligo,48

# Source: paper PMC5913336, “True equilibrium measurement of transcription factor-DNA binding affinities using automated polarization microscopy”
